± gives the uncertainty stated by the source.

The nature of this data set: protein stability index of a GFP-peptide fusion (yeast GPS) (PSI 1-4); higher = more stable; sorted into four equal gates, so the index is relative within each strain. The gist of the method:
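For each peptide, the protein stability index sums the read frequency in every gate after multiplying it by the gate number. Read frequencies came from plasmids that were PCR-amplified from each gate and Illumina-sequenced, with reads assigned to strains by barcodes. The gates were four equal bins of GFP/Cherry fluorescence ratio applied to mid-log yeast in leucine-free medium carrying a pooled library of tiled 17-residue yeast protein peptides fused downstream of GFP on a Cherry-expressing plasmid.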

Consider LNTLFNPVTLNEDSKAF [NUT1], for which the protein stability index worked out at 2.57 ± 0.062 (doa10∆), 1.84 ± 0.057 (pdr5∆), 1.65 ± 0.091 (san1∆) and 1.92 ± 0.043 (ubr1∆).

Regarding LNVAEIITSGRDTREVL [ARP9], the protein stability index was 3.35 ± 0.14 (doa10∆), 3.25 ± 0.089 (pdr5∆), 3.44 ± 0.051 (san1∆) and 3.43 ± 0.081 (ubr1∆).

In turn, LNVKCTRNPDAPKGSTD [RPC40] displayed a protein stability index (doa10∆) of 3.19 ± 0.095, a protein stability index (pdr5∆) of 3.1 ± 0.11, a protein stability index (san1∆) of 3.04 ± 0.064 and a protein stability index (ubr1∆) of 3.06 ± 0.12.

Turning to LNVPVFQIVIEPLAIAL [ARP7], the protein stability index is, setting by setting: (doa10∆) 1.65 ± 0.052; (pdr5∆) 1.66 ± 0.055; (san1∆) 1.48 ± 0.078; (ubr1∆) 1.25 ± 0.045.

With LNVSNTKENGDFTLPED [PRP8], the protein stability index is, setting by setting: (doa10∆) 2.98 ± 0.1; (pdr5∆) 3.14 ± 0.11; (san1∆) 3.12 ± 0.049; (ubr1∆) 3.21 ± 0.069.

LPGELAKHAVSEGTRAV [HTB1] had a protein stability index (doa10∆) of 3.22 ± 0.11, a protein stability index (pdr5∆) of 3.46 ± 0.12, a protein stability index (san1∆) of 3.42 ± 0.071 and a protein stability index (ubr1∆) of 3.31 ± 0.088.

LPLLYNFNPDNGFAPIS [FAS1]: the protein stability index (doa10∆) came out at 2.03 ± 0.12, the protein stability index (pdr5∆) amounted to 2.63 ± 0.054, the protein stability index (san1∆) was 2.47 ± 0.093 and the protein stability index (ubr1∆) came out at 2.72 ± 0.068.

As for LPLQPIEIDYTVRVDKA [SNF12], the protein stability index by setting is: (doa10∆) 2.39 ± 0.061; (pdr5∆) 2.19 ± 0.055; (san1∆) 2.08 ± 0.064; (ubr1∆) 2.27 ± 0.045.

As for LPNETINDRNDRAIRKT [DIS3], the protein stability index (ubr1∆) stood at 2.29 ± 0.11.

For LPPEKIYSPLHSFIKML [SIR2], the protein stability index was 1.65 ± 0.034 (doa10∆), 1.88 ± 0.032 (pdr5∆), 1.72 ± 0.05 (san1∆) and 1.71 ± 0.032 (ubr1∆).

Regarding LPQFRSSIQESLLSLVG [ECM29], the protein stability index by setting is: (doa10∆) 1.87 ± 0.067; (pdr5∆) 2.04 ± 0.048; (san1∆) 1.7 ± 0.1; (ubr1∆) 1.65 ± 0.054.

Take LPRELPKLLDALNKISK [SNU114]: the protein stability index was found to be 2.65 ± 0.072 (doa10∆), 2.74 ± 0.083 (pdr5∆), 2.84 ± 0.077 (san1∆) and 2.88 ± 0.062 (ubr1∆).

As to LPTDGGLTSRLQRQQRK [POP4], the protein stability index turned out to be 2.95 ± 0.16 (doa10∆), 3.3 ± 0.17 (pdr5∆), 3.13 ± 0.12 (san1∆) and 3.38 ± 0.12 (ubr1∆).

Turning to LPYAIAGSGSTFIYGYC [PRE3], the protein stability index reads like this: (doa10∆) 2.13 ± 0.14; (pdr5∆) 1.42 ± 0.084; (san1∆) 2.26 ± 0.12; (ubr1∆) 2.29 ± 0.085.

As to LPYPTYWSDKKADTDTL [SNF5], the protein stability index was 2.91 ± 0.11 (doa10∆), 2.92 ± 0.11 (pdr5∆), 3.1 ± 0.07 (san1∆) and 2.88 ± 0.059 (ubr1∆).

Regarding LQCISQINQGVPSAKPL [SNF11], the protein stability index reads like this: (doa10∆) 2.98 ± 0.092; (pdr5∆) 1.95 ± 0.081; (san1∆) 2.5 ± 0.083; (ubr1∆) 2.41 ± 0.074.

As to LQDDEDHKFPIRENKVT [BRN1], the protein stability index stood at 2.7 ± 0.1 (doa10∆), 3.07 ± 0.083 (pdr5∆), 2.75 ± 0.074 (san1∆) and 2.38 ± 0.095 (ubr1∆).

Turning to LQESINHVMYTEVSRKS [ECM29], the protein stability index is, setting by setting: (doa10∆) 2.47 ± 0.054; (pdr5∆) 2.74 ± 0.062; (san1∆) 2.47 ± 0.077; (ubr1∆) 2.51 ± 0.035.

Regarding LQGEVENIAQMKPKAEK [SMC4], the protein stability index (doa10∆) worked out at 3.02 ± 0.15, the protein stability index (pdr5∆) is 3.4 ± 0.12, the protein stability index (san1∆) was 3.19 ± 0.075 and the protein stability index (ubr1∆) came out at 3.11 ± 0.075.

Turning to LQIAQLTLKHRQNKVQH [RPN10], the protein stability index is, setting by setting: (doa10∆) 2.26 ± 0.088; (pdr5∆) 2.23 ± 0.071; (san1∆) 1.74 ± 0.1; (ubr1∆) 1.88 ± 0.065.

In the case of LQIHSRKMTTDDDINWQ [RPT5], the protein stability index is, setting by setting: (doa10∆) 3.09 ± 0.14; (pdr5∆) 3.12 ± 0.093; (san1∆) 2.93 ± 0.12; (ubr1∆) 3.06 ± 0.063.

As to LQIKRDVLDDLYRKLQR [CSE2], the protein stability index came to 2.94 ± 0.072 (doa10∆), 3.11 ± 0.069 (pdr5∆), 3.01 ± 0.085 (san1∆) and 3.35 ± 0.055 (ubr1∆).

LQILAMLLLNIFISSDH [YMR129W/POM152] displayed a protein stability index (doa10∆) of 1.72 ± 0.058, a protein stability index (pdr5∆) of 1.36 ± 0.061, a protein stability index (san1∆) of 1.35 ± 0.08 and a protein stability index (ubr1∆) of 1.13 ± 0.05.

With LQKRVIEHNLRVISEYY [RPN5], the protein stability index reads like this: (doa10∆) 2.02 ± 0.12; (pdr5∆) 2.27 ± 0.11; (san1∆) 2.77 ± 0.069; (ubr1∆) 1.37 ± 0.095.

LQLETPAEVGRAIRSEK [BRR2]: the protein stability index by setting is: (doa10∆) 2.08 ± 0.11; (pdr5∆) 2.92 ± 0.063; (san1∆) 1.66 ± 0.11.

Turning to LQPLEEGLIIDTDKLPI [SIN4], the protein stability index turned out to be 2.73 ± 0.097 (doa10∆), 2.79 ± 0.074 (pdr5∆), 2.75 ± 0.066 (san1∆) and 2.96 ± 0.061 (ubr1∆).

(Values after the supplement of paper PMC9732359.)
